In paper PMC10952593, “Synthetic cannabinoid receptor agonists are monoamine oxidase‐A selective inhibitors” (The Febs Journal, 2023):

Substrate: NCc1ccccc1
Test: purified protein
Type: biochemical, Homo sapiens
Conditions: 30 μM MAO-B [sic], 50 mM HEPES pH 7.5, 0.5% Triton X-100, 25 °C

B1: MAO-B (Homo sapiens) (protein)
chain: SNKCDVVVVGGGISGMAAAKLLHDSGLNVVVLEARDRVGGRTYTLRNQKVKYVDLGGSYVGPTQNRILRLAKELGLETYKVNEVERLIHHVKGKSYPFRGPFPPVWNPITYLDHNNFWRTMDDMGREIPSDAPWKAPLAEEWDNMTMKELLDKLCWTESAKQLATLFVNLCVTAETHEVSALWFLWYVKQCGGTTRIISTTNGGQERKFVGGSGQVSERIMDLLGDRVKLERPVIYIDQTRENVLVETLNHEMYEAKYVISAIPPTLGMKIHFNPPLPMMRNQMITRVPLGSVIKCIVYYKEPFWRKKDYCGTMIIDGEEAPVAYTLDDTKPEGNYAAIMGFILAHKARKLARLTKEERLKKLCELYAKVLGSLEALEPVHYEEKNWCEEQYSGGCYTTYFPPGILTQYGRVLRQPVDRIYFAGTETATHWSGYMEGAVEAGERAAREILHAMGKIPEDEIWQSEPESVDVPAQPITTTFLERHLPSVPGLLRLIGLTTIFSATALGFLAHKRGLLVRV
notes: FAD enzyme; PDB 2V5Z was only the docking model
  Km: 140 ± 30 µM
